Data on 3 substances can be found in patent EP2272524A2.

Test [1] deals with human Y4 receptor (human) (UniProt P50391). Description: competition binding, displacement of 125I-PP, COS-7 cells with human Y4. (In general: Displacement assays read how much labelled ligand stays bound in the presence of the test substance.)
In test [2] the target is human Y2 receptor (human) (UniProt P49146). Description: competition binding, displacement of 125I-PYY, COS-7 cells with human Y2.
The target in test [3] is human Y4 receptor (human) (UniProt P50391). Briefly: cell-based or functional assay.
Test [4] concerns the target human Y2 receptor (human) (UniProt P49146). Description: cell-based or functional assay.
The target in test [5] is human Y1 receptor (human) (UniProt P25929). Briefly: cell-based or functional assay.
Sequence of UniProt P25929 (P25929 whole entry): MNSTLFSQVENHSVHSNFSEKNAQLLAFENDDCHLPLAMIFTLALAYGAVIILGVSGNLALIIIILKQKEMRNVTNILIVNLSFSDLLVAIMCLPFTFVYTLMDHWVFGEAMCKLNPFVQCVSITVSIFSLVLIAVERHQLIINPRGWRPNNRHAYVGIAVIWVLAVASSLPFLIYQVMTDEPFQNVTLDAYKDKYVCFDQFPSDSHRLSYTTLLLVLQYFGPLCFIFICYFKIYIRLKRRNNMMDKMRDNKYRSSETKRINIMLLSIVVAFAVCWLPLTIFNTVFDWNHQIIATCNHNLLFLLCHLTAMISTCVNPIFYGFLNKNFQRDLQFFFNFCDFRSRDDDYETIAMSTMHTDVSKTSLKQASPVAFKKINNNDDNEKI
The target of test [6] is human Y5 receptor (human) (UniProt Q15761). Briefly: competition binding, displacement of 125I-NPY, COS-7 cells with human Y5.
Sequence of UniProt Q15761 (Q15761 whole entry): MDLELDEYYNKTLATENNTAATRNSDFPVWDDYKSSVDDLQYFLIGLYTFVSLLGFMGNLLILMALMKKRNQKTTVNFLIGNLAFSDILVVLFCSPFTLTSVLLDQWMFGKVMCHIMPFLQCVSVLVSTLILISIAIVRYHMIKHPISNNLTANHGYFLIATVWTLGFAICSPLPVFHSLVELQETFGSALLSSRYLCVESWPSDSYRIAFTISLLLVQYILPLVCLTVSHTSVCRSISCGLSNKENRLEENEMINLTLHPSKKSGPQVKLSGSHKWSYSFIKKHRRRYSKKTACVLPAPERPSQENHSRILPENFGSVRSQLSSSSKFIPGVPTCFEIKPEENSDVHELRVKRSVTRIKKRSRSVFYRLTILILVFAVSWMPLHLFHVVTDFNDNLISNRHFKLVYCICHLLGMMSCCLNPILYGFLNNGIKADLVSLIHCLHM
The target is the same in test [7]. Briefly: cell-based or functional assay.

Sequence of UniProt P50391 (P50391 whole entry): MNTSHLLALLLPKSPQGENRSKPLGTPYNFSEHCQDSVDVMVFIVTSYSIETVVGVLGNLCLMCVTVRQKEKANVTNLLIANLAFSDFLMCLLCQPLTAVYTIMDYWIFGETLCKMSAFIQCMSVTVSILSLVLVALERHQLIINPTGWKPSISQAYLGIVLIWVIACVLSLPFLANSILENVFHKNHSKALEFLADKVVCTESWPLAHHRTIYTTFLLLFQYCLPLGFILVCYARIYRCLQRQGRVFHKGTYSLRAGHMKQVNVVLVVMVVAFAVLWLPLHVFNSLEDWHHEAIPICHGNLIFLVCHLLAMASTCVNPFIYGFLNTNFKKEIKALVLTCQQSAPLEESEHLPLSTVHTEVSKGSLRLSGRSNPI
Sequence of UniProt P49146 (P49146 whole entry): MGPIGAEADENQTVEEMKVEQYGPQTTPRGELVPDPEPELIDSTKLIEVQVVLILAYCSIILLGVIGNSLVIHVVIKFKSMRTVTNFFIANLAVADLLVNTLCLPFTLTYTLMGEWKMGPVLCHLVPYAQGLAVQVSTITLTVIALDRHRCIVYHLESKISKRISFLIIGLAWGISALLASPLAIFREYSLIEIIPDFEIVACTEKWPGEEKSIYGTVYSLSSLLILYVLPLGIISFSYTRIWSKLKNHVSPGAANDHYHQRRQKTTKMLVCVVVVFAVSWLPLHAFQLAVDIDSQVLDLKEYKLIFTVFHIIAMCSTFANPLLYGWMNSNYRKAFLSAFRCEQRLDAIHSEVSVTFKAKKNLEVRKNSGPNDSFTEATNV

Turning to [Cys2,D-Cys27]PYY2-36 (peptide), the IC50 in test [1] is 300 nM; in test [2] it was 0.6 nM; in test [6] it was 36 nM. Besides, the EC50, inositol phosphate turnover (potency assay) in test [3] was > 1000 nM; in test [4], 1.9 nM; in test [5] it was > 1000 nM.
Turning to [Cys2,D-Cys27]PYY (peptide), the EC50, inositol phosphate turnover (potency assay) in test [3] and in test [5] was > 1000 nM in each case.
Regarding [Lys4,Gln34]PP (peptide), the IC50 is 6 nM in test [1], 0.21 nM in test [2] and 0.87 nM in test [6]. Further, the EC50, inositol phosphate turnover (potency assay) in test [7] worked out at 3.8 nM; in test [3], 64 nM; in test [4] it was 0.17 nM; in test [5], 38 nM.

Broadly, the IC50 is the point on the concentration scale where inhibition reaches its midpoint. A high value points to lower potency.
